Experimental data: paper PMC3719477 (ACS Chemical Biology, 2013)

Target: KIX domain (residues 586–672) of human CREB binding protein (CBP) (human, UniProt Q92793 586-672)
Experiment: NMR solution structure

Chain of KIX domain (residues 586–672) of human CREB binding protein (CBP) (Q92793 586-672): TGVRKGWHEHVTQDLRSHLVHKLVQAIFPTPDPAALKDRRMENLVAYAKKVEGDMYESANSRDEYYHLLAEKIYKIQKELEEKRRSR

binding result: binds
Binder: DAGNILPSDIMDFVLKNTP (peptide, UniProt Q03164 2840-2858, looked up)
